How the values were obtained:
[1] = target: T1, human GITR (amino acids M1-V241, NCBI Accession #NP_004186.1) expressed on cells (human, UniProt Q9Y5U5 26-241); test: cell-based or functional assay
T1 sequence: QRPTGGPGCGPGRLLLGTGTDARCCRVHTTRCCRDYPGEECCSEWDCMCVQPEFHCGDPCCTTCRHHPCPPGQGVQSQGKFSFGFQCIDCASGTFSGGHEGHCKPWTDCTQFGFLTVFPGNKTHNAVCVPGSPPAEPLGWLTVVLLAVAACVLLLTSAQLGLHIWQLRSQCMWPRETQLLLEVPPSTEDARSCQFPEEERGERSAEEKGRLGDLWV

[2] = target: T1, human GITR (amino acids M1-V241, NCBI …); test: cell-based or functional assay; remark: listed apart in the source
[3] = target: T1, human GITR (amino acids M1-V241, NCBI …); test: cell-based or functional assay; remark: listed apart in the source
[4] = target: T1, human GITR (amino acids M1-V241, NCBI …); test: cell-based or functional assay; remark: listed apart in the source
[5] = target: T1, human GITR (amino acids M1-V241, NCBI …); test: cell-based or functional assay; remark: listed apart in the source
[6] = target: T1, human GITR (amino acids M1-V241, NCBI …); test: cell-based or functional assay; remark: listed apart in the source
[7] = target: T1, human GITR (amino acids M1-V241, NCBI …); test: ECL cell binding, hGITR/HEK293-D9
In short: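 Cells blocked with 2% BSA, then antibody dilutions from 1.7 pM to 100 nM added 1 h at RT. Bound antibody detected with SULFO-TAG anti-human kappa antibody, electrochemiluminescence read, RLU fitted by four-parameter logistic; signal at 100 nM on hGITR cells versus parental cells also recorded.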

[8] = target: T1, human GITR (amino acids M1-V241, NCBI …); test: cell-based or functional assay; remark: listed apart in the source
hGITR.mFc = target: T2, hGITR.mFc (human); test: SPR 37C, mAb capture
T2 construct: soluble dimeric construct with mouse Fc; also called dimeric human GITR
T2 chain: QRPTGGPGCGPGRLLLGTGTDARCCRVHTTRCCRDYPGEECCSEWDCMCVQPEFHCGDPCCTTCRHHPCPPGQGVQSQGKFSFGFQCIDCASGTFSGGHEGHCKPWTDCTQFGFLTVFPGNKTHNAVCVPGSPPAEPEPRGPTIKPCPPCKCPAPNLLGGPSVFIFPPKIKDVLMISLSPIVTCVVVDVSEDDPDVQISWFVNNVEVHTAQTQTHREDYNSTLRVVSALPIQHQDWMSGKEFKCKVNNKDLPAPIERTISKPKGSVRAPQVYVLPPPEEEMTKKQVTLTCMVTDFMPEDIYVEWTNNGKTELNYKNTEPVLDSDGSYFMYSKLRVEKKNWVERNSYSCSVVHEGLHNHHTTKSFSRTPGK

mfGITR.mmh = target: T3, mfGITR.mmh (Macaca fasicularis); test: SPR 37C, mAb capture
T3 construct: soluble monomeric construct; also called Macaca fasicularis (mf) GITR.mmh; cynomolgus GITR protein
T3 chain: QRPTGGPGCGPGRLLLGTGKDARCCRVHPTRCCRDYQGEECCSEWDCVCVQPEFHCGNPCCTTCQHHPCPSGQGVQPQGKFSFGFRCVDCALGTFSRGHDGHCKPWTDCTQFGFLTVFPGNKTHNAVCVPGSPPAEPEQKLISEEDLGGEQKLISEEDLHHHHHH

hGITR.mmh = target: T4, hGITR.mmh (human); test: SPR 37C, mAb capture
T4 construct: soluble monomeric construct; also called human (h) GITR.mmh; monomeric human GITR
T4 chain: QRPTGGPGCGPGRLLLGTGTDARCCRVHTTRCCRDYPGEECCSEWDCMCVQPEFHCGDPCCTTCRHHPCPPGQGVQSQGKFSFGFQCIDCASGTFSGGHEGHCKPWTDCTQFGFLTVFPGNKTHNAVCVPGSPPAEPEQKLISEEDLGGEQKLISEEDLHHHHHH

B1: H4H14536P2 (antibody, human IgG4, V domains shown)
VH: QVQLQESGPGLVKPSETLSLTCIVSGGSISGYFWNWIRQPPGKGLEWIGYIYYSGTTIYNPSLKSRFTISLDTSKNQFSLKLTSVTAADTAVYYCARESYNPSPRYFDHWGQGTLVTVSS
VL: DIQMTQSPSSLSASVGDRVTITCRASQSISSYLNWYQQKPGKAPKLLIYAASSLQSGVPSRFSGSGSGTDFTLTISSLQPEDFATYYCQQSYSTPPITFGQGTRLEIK
notes: human IgG4 (H4H)
EC50, T-cell proliferation, FcgR anchored, donor 1 [1]: 1.2 nM
EC50, T-cell proliferation, FcgR anchored, donor 2 [1]: 0.5 nM
EC50, T-cell proliferation, FcgR anchored, donor 3 [1]: 1.3 nM
EC50, T-cell proliferation, FcgR anchored, donor 4 [1]: 11.2 nM
EC50, T-cell proliferation, FcgR anchored, donor 5 [1]: 1.6 nM
EC50, T-cell proliferation, FcgR anchored, mean [1]: 3.2 nM
% Activation, NF-kB-Luc, non-anchored [2]: 20%
% Blocking, NF-kB-Luc, non-anchored [2]: 90%
EC50, hGITR activation, NF-kB-Luc, non-anchored [2]: 1.1 nM
IC50, blocking of hGITRL stimulation, NF-kB-Luc, non-anchored [2]: 2 nM
fold activation, T-cell proliferation, 22 nM, non-anchored, donor 1 [3]: 6.2 fold
fold activation, T-cell proliferation, 22 nM, non-anchored, donor 2 [3]: 4.2 fold
fold activation, T-cell proliferation, 22 nM, non-anchored, donor 3 [3]: 10.1 fold
fold activation, T-cell proliferation, 22 nM, non-anchored, donor 4 [3]: 23.4 fold
fold activation, T-cell proliferation, 22 nM, non-anchored, mean [3]: 11 fold
EC50, T-cell proliferation, non-anchored, average [4]: 8.3 nM
EC50, T-cell proliferation, non-anchored, donor 1 [4]: 12.2 nM
EC50, T-cell proliferation, non-anchored, donor 2 [4]: 6.4 nM
EC50, T-cell proliferation, non-anchored, donor 3 [4]: 9 nM
EC50, T-cell proliferation, non-anchored, donor 4 [4]: 5.7 nM
fold activation, T-cell proliferation, 33 nM, FcgR anchored, donor 1 [5]: 1.3 fold
fold activation, T-cell proliferation, 33 nM, FcgR anchored, donor 2 [5]: 6.3 fold
fold activation, T-cell proliferation, 33 nM, FcgR anchored, donor 3 [5]: 1.5 fold
fold activation, T-cell proliferation, 33 nM, FcgR anchored, donor 4 [5]: 2.7 fold
fold activation, T-cell proliferation, 33 nM, FcgR anchored, donor 5 [5]: 15.7 fold
fold activation, T-cell proliferation, 33 nM, FcgR anchored, mean [5]: 5.5 fold
EC50, hGITR activation, NF-kB-Luc, FcgR anchored [6]: 0.01 nM
Fold Activation over basal signal, NF-kB-Luc, FcgR anchored [6]: 5 fold
IC50, blocking of hGITRL stimulation, NF-kB-Luc, FcgR anchored [6]: 0.2 nM
Average Signal (RLU) at 100 nM [7]: 8960 RLU
EC50 [7]: 0.36 nM
fold activation, T-cell proliferation, plate-bound Ab 10.6 nM, donor 1 [8]: 3 fold
fold activation, T-cell proliferation, plate-bound Ab 10.6 nM, donor 2 [8]: 24 fold
fold activation, T-cell proliferation, plate-bound Ab 10.6 nM, donor 3 [8]: 24 fold
fold activation, T-cell proliferation, plate-bound Ab 10.6 nM, donor 4 [8]: 25 fold
fold activation, T-cell proliferation, plate-bound Ab 10.6 nM, donor 5 [8]: 24 fold
fold activation, T-cell proliferation, plate-bound Ab 10.6 nM, donor 6 [8]: 47 fold
fold activation, T-cell proliferation, plate-bound Ab 10.6 nM, donor 7 [8]: 26 fold
fold activation, T-cell proliferation, plate-bound Ab 10.6 nM, donor 8 [8]: 16 fold
fold activation, T-cell proliferation, plate-bound Ab 10.6 nM, mean [8]: 23 fold
Kd (hGITR.mFc): 0.173 nM
koff (hGITR.mFc): 0.000219 s⁻¹
kon (hGITR.mFc): 1.26e+06 M⁻¹ s⁻¹
t½ (hGITR.mFc): 52.7 min
Kd (mfGITR.mmh): 142 nM
koff (mfGITR.mmh): 0.0147 s⁻¹
kon (mfGITR.mmh): 104000 M⁻¹ s⁻¹
t½ (mfGITR.mmh): 0.8 min
Kd (hGITR.mmh): 23 nM
koff (hGITR.mmh): 0.00976 s⁻¹
kon (hGITR.mmh): 424000 M⁻¹ s⁻¹
t½ (hGITR.mmh): 1.2 min

Reference: US20170355774A1 (Regeneron, published 2017)
